Assay results reported in patent publication US20260242478A1 (published 2026).
Where no end group is shown, it is not given here.

Key:
PSMA Fab [1] = target: T1, PSMA Fab (biotinylated (site not stated)); assay: clonal phage ELISA; biotinylated PSMA Fab on neutravidin plate pre-incubated with PSMA antigen as competitor; anti-M13 HRP detection;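 also: crude clonal phage supernatants briefly incubated on wells preloaded with PSMA antigen in blocking buffer, or buffer only as control, bound phage detected with HRP-conjugated anti-M13 antibody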
T1 construct: Biotinylated PSMA Fab captured on neutravidin plates in the phage ELISA; also called Anti-PSMA Fab; 006 PSMA Fab

PSMA Fab [2] = target: T1, PSMA Fab; assay: clonal phage ELISA; biotinylated PSMA Fab on neutravidin plate; anti-M13 HRP detection; blocking buffer alone
Procedure: (§1) Clonal phage were harvested as crude supernatants and screened via standard ELISAs. […] Prior to the addition of clonal phage. wells were incubated with blocking buffer and PSMA antigen or blocking buffer alone. Without washing or aspirating, clonal phage supernatants were then added to the wells and incubated for a short time. Wells were then washed followed by detection of bound phage using a horse radish conjugated anti-M13 antibody.

PSMA Fab [3] = target: T2, PSMA Fab; assay: phage ELISA; biotinylated PSMA Fab on neutravidin plate, clonal phage supernatant, anti-M13 HRP; wells pre-incubated with PSMA antigen as competitor
T2 construct: Biotinylated and captured on neutravidin coated plates in the phage ELISA; also called 006 PSMA Fab; Anti-PSMA Fab
Procedure: as §1

PSMA Fab [4] = target: T2, PSMA Fab; assay: phage ELISA; biotinylated PSMA Fab on neutravidin plate, clonal phage supernatant, anti-M13 HRP; no PSMA antigen
Procedure: as §1

006 PSMA Fab [5] = target: T3, 006 PSMA Fab; assay: phage ELISA: biotinylated PSMA Fab on neutravidin plate, clonal phage supernatant, anti-M13-HRP detection; blocking buffer alone
T3 construct: also called Anti-PSMA Fab; anti-PSMA Fab
Procedure: as §1

006 PSMA Fab [6] = target: T3, 006 PSMA Fab; assay: phage ELISA: biotinylated PSMA Fab on neutravidin plate pre-incubated with PSMA antigen (competitor), clonal phage supernatant, anti-M13-HRP detection
Procedure: as §1

Row | Binder | Phage binding ELISA signal, Anti-PSMA Fab in presence of PSMA (PSMA Fab [1]) | Phage binding ELISA signal, Anti-PSMA Fab (PSMA Fab [2]) | phage binding ELISA signal (PSMA Fab [3]) | phage binding ELISA signal (PSMA Fab [4]) | other results
1 | MPKWCTPSWMCAVQ (cysteine pairing not given here; also: displayed as fusion to phage pIII) [Phage-2439] | 0.0845 | 1.31 | – | – | –
2 | EERWCIPEWMCSRI (Peptide-180 library clone, tested as clonal phage (peptide fused to pIII)) [Phage-2434] | – | – | 0.0557 | 1.32 | –
3 | VVNWCTPAWMCSGF (cysteine pairing not given here; also: displayed on phage as fusion to pIII, pIII and linker sequence not given here, Clonal phage of the peptide-180 library; not shown: pIII filament protein of the bacteriophage to which the peptide is fused) [Phage-2482] | – | – | – | – | phage binding ELISA signal (006 PSMA Fab [5]): 1.23; phage binding ELISA signal in presence of PSMA antigen (006 PSMA Fab [6]): 0.0652
4 | GINWCTPSWMCTGF (Peptide-180 library clone, tested as clonal phage (peptide fused to pIII)) [Phage-2435] | – | – | 0.0711 | 1.31 | –
5 | SVKWCTPSWMCEHM (Clonal phage of the peptide-180 library; not shown: pIII filament protein of the bacteriophage to which the peptide is fused) [Phage-2491] | – | – | – | – | phage binding ELISA signal (006 PSMA Fab [5]): 1.22; phage binding ELISA signal in presence of PSMA antigen (006 PSMA Fab [6]): 0.0739
6 | LVNWCTPPWMCWHD (Peptide-180 library clone, tested as clonal phage (peptide fused to pIII)) [Phage-2424] | – | – | 0.0827 | 1.33 | –
7 | GAIWCIPQWMCAWN (cysteine pairing not given here; also: displayed as fusion to phage pIII) [Phage-2443] | 0.132 | 1.3 | – | – | –
8 | FPHLCIPYWMCVRT (Clonal phage of the peptide-180 library; not shown: pIII filament protein of the bacteriophage to which the peptide is fused) [Phage-2486] | – | – | – | – | phage binding ELISA signal (006 PSMA Fab [5]): 1.22; phage binding ELISA signal in presence of PSMA antigen (006 PSMA Fab [6]): 0.198
9 | LWMSCIPPWMCANV (cysteine pairing not given here; also: displayed as fusion to phage pIII, Peptide-180 library clone, tested as clonal phage (peptide fused to pIII)) [Phage-2426] | – | – | 0.137 | 1.33 | –
10 | LHKLCTPTWMCEGF [Phage-2442] | 0.0712 | 1.3 | – | – | –
11 | MPKWCTPSWMCSPS [Phage-2436] | 0.0576 | 1.31 | – | – | –
12 | GDNWCKPAWMCRDM (Peptide-180 library clone, tested as clonal phage (peptide fused to pIII)) [Phage-2433] | – | – | 0.0728 | 1.32 | –
13 | GEKWCIPEWMCVTT (Peptide-180 library clone, tested as clonal phage (peptide fused to pIII)) [Phage-2429] | – | – | 0.0637 | 1.32 | –
14 | VSIWCIPPWMCVEK (Clonal phage of the peptide-180 library; not shown: pIII filament protein of the bacteriophage to which the peptide is fused) [Phage-2488] | – | – | – | – | phage binding ELISA signal (006 PSMA Fab [5]): 1.22; phage binding ELISA signal in presence of PSMA antigen (006 PSMA Fab [6]): 0.101
15 | VLKWCTPPWMCWDI (Peptide-180 library clone, tested as clonal phage (peptide fused to pIII)) [Phage-2431] | – | – | 0.123 | 1.32 | –
16 | EAKWCIPNWMCEMA [Phage-2438] | 0.0622 | 1.31 | – | – | –
17 | YEKWCTPTWMCSWL [Phage-2446] | 0.218 | 1.29 | – | – | –
18 | VSPLCKPDWMCNGF (Clonal phage of the peptide-180 library; not shown: pIII filament protein of the bacteriophage to which the peptide is fused) [Phage-2485] | – | – | – | – | phage binding ELISA signal (006 PSMA Fab [5]): 1.22; phage binding ELISA signal in presence of PSMA antigen (006 PSMA Fab [6]): 0.0787
19 | PAKWCVPSWMCSEI [Phage-2440] | 0.0676 | 1.31 | – | – | –

Row | Binder | Phage binding ELISA signal, Anti-PSMA Fab in presence of PSMA (PSMA Fab [1]) | Phage binding ELISA signal, Anti-PSMA Fab (PSMA Fab [2]) | phage binding ELISA signal (PSMA Fab [3]) | phage binding ELISA signal (PSMA Fab [4]) | other results
20 | DENWCKPLWMCEGF (Peptide-180 library clone, tested as clonal phage (peptide fused to pIII)) [Phage-2425] | – | – | 0.0991 | 1.33 | –
21 | IEKWCTPPWMCLDH [Phage-2447] | 0.0663 | 1.29 | – | – | –
22 | DFKWCTPPWMCDVF (Clonal phage of the peptide-180 library; not shown: pIII filament protein of the bacteriophage to which the peptide is fused) [Phage-2490] | – | – | – | – | phage binding ELISA signal (006 PSMA Fab [5]): 1.22; phage binding ELISA signal in presence of PSMA antigen (006 PSMA Fab [6]): 0.0763
23 | EEPWCIPSWMCALT (cysteine pairing not given here; also: displayed as fusion to phage pIII) [Phage-2449] | 0.0689 | 1.29 | – | – | –
24 | LVRWCVPEWMCAGM (cysteine pairing not given here; also: displayed on phage as fusion to pIII, pIII and linker sequence not given here, Clonal phage of the peptide-180 library; not shown: pIII filament protein of the bacteriophage to which the peptide is fused) [Phage-2484] | – | – | – | – | phage binding ELISA signal (006 PSMA Fab [5]): 1.22; phage binding ELISA signal in presence of PSMA antigen (006 PSMA Fab [6]): 0.0945
25 | EYKWCVPIWMCAYD (cysteine pairing not given here; also: displayed as fusion to phage pIII, Peptide-180 library clone, tested as clonal phage (peptide fused to pIII)) [Phage-2427] | – | – | 0.0826 | 1.33 | –
26 | EMNWCIPAWMCEGR [Phage-2437] | 0.0633 | 1.31 | – | – | –
27 | WAKWCTPEWMCVVH (Clonal phage of the peptide-180 library; not shown: pIII filament protein of the bacteriophage to which the peptide is fused) [Phage-2489] | – | – | – | – | phage binding ELISA signal (006 PSMA Fab [5]): 1.22; phage binding ELISA signal in presence of PSMA antigen (006 PSMA Fab [6]): 0.15
28 | DSRWCIPDWMCELE (Clonal phage of the peptide-180 library; not shown: pIII filament protein of the bacteriophage to which the peptide is fused) [Phage-2483] | – | – | – | – | phage binding ELISA signal (006 PSMA Fab [5]): 1.23; phage binding ELISA signal in presence of PSMA antigen (006 PSMA Fab [6]): 0.0935
29 | ADRLCIPPWMCEMK (Peptide-180 library clone, tested as clonal phage (peptide fused to pIII)) [Phage-2428] | – | – | 0.0685 | 1.33 | –
30 | VVKWCTPPWMCSVW [Phage-2450] | 0.104 | 1.29 | – | – | –
31 | EVKWCIPAWMCVED [Phage-2444] | 0.0892 | 1.3 | – | – | –
32 | DYKWCTPIWMCAGD (cysteine pairing not given here; also: displayed on phage as fusion to pIII, pIII and linker sequence not given here, Clonal phage of the peptide-180 library; not shown: pIII filament protein of the bacteriophage to which the peptide is fused) [Phage-2487] | – | – | – | – | phage binding ELISA signal (006 PSMA Fab [5]): 1.22; phage binding ELISA signal in presence of PSMA antigen (006 PSMA Fab [6]): 0.0707
33 | VVHWCTPAWMCYDM [Phage-2441] | 0.0623 | 1.3 | – | – | –
34 | EVKWCIPNWMCAAS (cysteine pairing not given here; also: displayed as fusion to phage pIII, Peptide-180 library clone, tested as clonal phage (peptide fused to pIII)) [Phage-2432] | – | – | 0.077 | 1.32 | –
35 | LERWCIPSWMCTED [Phage-2445] | 0.0674 | 1.3 | – | – | –
36 | EIKWCTPPWMCTIG (Peptide-180 library clone, tested as clonal phage (peptide fused to pIII)) [Phage-2430] | – | – | 0.102 | 1.32 | –
37 | ESKWCIPEWMCEQR [Phage-2448] | 0.0688 | 1.29 | – | – | –
